These results are taken from US9959384 (BIONIZ, dated 2018).

No end group written: not given here.

The target in the test is T1, human common gamma chain (γc, CD132) (human, UniProt P31785 23-369).
T1 sequence (looked up): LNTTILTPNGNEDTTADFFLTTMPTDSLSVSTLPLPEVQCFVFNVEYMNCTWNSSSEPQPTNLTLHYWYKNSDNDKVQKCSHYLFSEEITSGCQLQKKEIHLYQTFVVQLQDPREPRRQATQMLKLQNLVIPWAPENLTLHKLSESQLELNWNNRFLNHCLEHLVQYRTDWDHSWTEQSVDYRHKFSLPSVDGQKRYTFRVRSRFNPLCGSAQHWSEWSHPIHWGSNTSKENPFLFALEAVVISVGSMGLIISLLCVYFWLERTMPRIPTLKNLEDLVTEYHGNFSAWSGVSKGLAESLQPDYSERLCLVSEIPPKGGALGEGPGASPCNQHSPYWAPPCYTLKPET
The test is described as follows: cell-based or functional assay.

As for IKEFLQSFIHIVQSIINT (not fully specified) [BNZ132-1 peptide], the “IC50 of inhibition of IL-2/IL-15-induced proliferation of ex vivo human T-lymphocytes (IL-2 + IL-15, 0.1 nM each)” value came to 150 nM.
